Measured values from paper PMC3589550 (Nature structural & molecular biology, 2011).

B1: vIRF4^153–216 (domain or fragment)
chain: SDTREQSYEEAGAAAPAPPKAPSGLRGRPRKSNRYYNVGDITTEQKAACSVWIPVNEGASTSGM
B2: vIRF4^153–256 (domain or fragment)
chain: SDTREQSYEEAGAAAPAPPKAPSGLRGRPRKSNRYYNVGDITTEQKAACSVWIPVNEGASTSGMGSSGTRQVTQASSFTWRVPGDPPAPSTLTGPSDPHSSGAG
B3: vIRF4^153–256/Δ202–216/Δ237–256 (domain or fragment)
chain: SDTREQSYEEAGAAAPAPPKAPSGLRGRPRKSNRYYNVGDITTEQKAACGSSGTRQVTQASSFTWRVPG
B4: vIRF4^153–256/Δ202–216 (domain or fragment)
chain: SDTREQSYEEAGAAAPAPPKAPSGLRGRPRKSNRYYNVGDITTEQKAACGSSGTRQVTQASSFTWRVPGDPPAPSTLTGPSDPHSSGAG

Biological target: HAUSP^62–205 (HAUSP TRAF domain) (UniProt Q93009 62-205)
Sequence (Q93009 62-205): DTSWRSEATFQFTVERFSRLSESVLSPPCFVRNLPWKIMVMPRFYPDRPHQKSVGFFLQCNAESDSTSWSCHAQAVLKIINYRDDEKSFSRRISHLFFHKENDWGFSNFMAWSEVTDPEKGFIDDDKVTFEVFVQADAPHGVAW
Experiment: ITC

Row | Binder | Kd [nM] | Ka [M⁻¹]
1 | B1 | 540 | –
2 | B2 | 76 | –
3 | EQGPADDPGEGPSTG [EBNA1^435–449 peptide] | 480 | –
4 | DLVQELQEEKPSSSHL (peptide, UniProt Q00987 137-152, looked up) [MDM2^137–152 peptide] | 11100 | 91000
5 | B3 | 4030 | –
6 | B4 | 3450 | –
